Measured values reported in the DeepSol protein solubility set.

Assay: soluble on expression in E. coli; label from the status in PepcDB or PDB records

Sequence	soluble on expression in E. coli
MAAALPRTLGELQLYRILQKANLLSYFDAFIQQGGDDVQQLCEAGEEEFLEIMALVGMASKPLHVRRLQKALRDWVTNPGLFNQPLTSLPVSSIPIYKLPEGSPTWLGISCSSYERSSNAREPHLKIPKCAATTCVQSLGQGKSDVVGSLALQSVGESRLWQGHHATESEHSLSPADLGSPASPKESSEALDAAAALSVAECVERMAPTLPKSDLNEVKELLKTNKKLAKMIGHIFEMNDDDPHKEEEIRKYSAIYGRFDSKRKDGKHLTLHELTVNEAAAQLCVKDNALLTRRDELFALARQISREVTYKYTYRTTKSKCGERDELSPKRIKVEDGFPDFQDSVQTLFQQARAKSEELAALSSQQPEKVMAKQMEFLCNQAGYERLQHAERRLSAGLYRQSSEEHSPNGLTSDNSDGQGERPLNLRMPNLQNRQPHHFVVDGELSRLYPSEAKSHSSESLGILKDYPHSAFTLEKKVIKTEPEDSR	soluble
MSAAASMFVRQFFHGTRADLSPGELIVVGYQSNFTTAAPLSWVYFSGTLDAAIWGAELAAGDAPQRIYVVEPTGPFEDDPNLTDKKFPGNPTLSYRSKHPLRIVAEMTKWQGHSPERVQQMKDGLARLSAEGAEIID	not soluble
MAHHHHHHMEIADRPLSEIIKEQKIDKELRRRHRGNQSGGNSDKKSVNRQGSSSQRQRNNNNNNTSGSRSRGSGNRSGGNKPESGRRRFRTDGGRRRGGNAVSAGSGSFGASRRRLADRADRRRRGALGGDNGNDGFGRGRDRDNNDRRGVKSAPRRRRISGAERNERNRNRDRRSALSRSRFDRDY	soluble
MSQAELPVLRVAYMPLIDCAPLVAASRLGLDHAYGLQLQLHRQASWAGVRDRLLAGEVDAAHTLASLVYAIDLGVGGPQCPMALLMTLNHNGQAITLAPALAQGVAAGQPLPQVLAEAGRRVVFAQTFPTGTHALWLYYWLAACGVDPMRDVDVVSIPPPQMPEALASGLVDGYCSGEPWAAVAEAQGSGQRVIRSGELWPEHPEKVLACRREFAALQPELSERLTACVLEACRWLDAAPANRAQCAQWLADPDYIGVPAAHLAACLDADAATVSVDPSALAFHRGGAVNMPWLSDGEWFLEQFQRWGWHTLQAADLARLHDIHRLDNYRRAAQRAGVTAPDADRRINRLFDTPAALEHHHHHH	not soluble
MGSDKIHHHHHHMNIPIKTLQCFLTLVETENFTRAAQKCFITQPTLSKIIQRLEESLGETLLIRNNQKVELTQAGQLFEHSAREILGQWHRLQEDMSNLSGLKSGRLRLGVCPMMSSLIIGLLTSYRKRYPGVELQMYEYGGFGCEQALLNNSLDIAFTALPTTHETELINQPLTKYPLLACLPEAHPLAAKSYLSWQDFEPYPFILYNEDFSLAKLINRLSRKAGVQLNIAFRSGQWDFLATMVEADMGLAILPEPICQKLSNSKLVFRPMQPALTWDLALIWRQNLPLTPAANALLELSKQKA	not soluble
SFHGIPATPGIGAPGNKPELYEEVKLYKNAREREKYDNMAELFAVVKTMQALEKAYIKDCVSPSEYTAACSRLLVQYKAAFRQVQGSEISSIDEFCRKFRLDCPLAMERIKEDRPITIKDDKGNLNRCIADVVSLFITVMDKLRLEIRAMDEIQPDLRELMETMHRMSHLPPDFEGRQTVSQWLQTLSGMSASDELDDSQVRQMLFDLESAYNAFNRFLHA	soluble
MFRLLFVSPRIAPNTGNAIRTCAATGCELHLVEPLGFDLSEPKLRRAGLDYHDLASVTVHASLAHAWEALSPARVFAFTAQATTLFTNVGYRAGDVLMFGPEPTGLDEATLADTHITGQVRIPMLAGRRSLNLSNAAAVAVYEAWRQHGFAGAV	not soluble
MEGEKGSKTRKGDALAREKLLEIAEKIYNQFEEEVVPSVSLPSRTKANLEYSDESDVWVYGDRESERSAKTVKGAFQLLKTTYATDFLINEHLARNRGSTLRELYYISEGWDYAKFKEQGESDRLIEDLEILTSLQREYFHMRPEEDGATMFGPIEITEQTKRGERNIHCQKDVGEGGYQIPFNVENIEFQKHDASMIIAIETGGMYARLMENGFDEAYNAILVHLKGQPARSTRRIIKRMNEELGIPVAVFTDGDPWSYRIYASVAYGAIKSAHLSEFMATPAAKFLGLQPSDIVEYELSTDKLTEQDVSALRSELSDPRFESDYWKEQIQLQLDIGKKAEQQAFAGKGLDFVTEVYLPNRLKEMGMI	soluble
MVMVNFVKAGCSRWRCMLAKDTCIFTTFQMVPVSLCCCSYDRCNVGGNPVYSDNPKQIQNGGGNSGNWNSGGNNNGASGGSWGNGNANNNNNNNNGGSNNNGWGNNNDWSSNYNYGGSNAANEPKMTKQTVAGDDSWNKNKWTNKQVEDMFKKSIDDRGDEIQLEDDFKKIDKNYKTQSVPQESLRTLSARKEVEKIPFVAGKSSGVGAKTTASPTTGKSKEIQL	not soluble
MDLMAYWLCITNEDNWKVIKEKKIWGVAERYKNTINKVKVGDKLIIYEIQRSGKDYKPPYIRGVYEVVSEVYKDSSKIFKPTPRNPNEKFPYRVKLKEIKVFEPPINFKELIPKLKFITNKKRWSGHLMGKAMREIPEEDYKLIVGN	soluble
MALKKHNVFVFSSNYTLYGDMSQRVMNTLAEFTPEIEVYSIDESFLNFEGFELLGDLKIYGTTIRNTVFRNTGIPVSIGIAPTKALAKLSNRIAKKNKEYNHVCVLEHHHHHH	not soluble
MGSDKIHHHHHHMVKNDESQIFTKMRLTLVIPSLYSGGAERVLSIIANYWASKGWKVTLLTFCGNQPPFYDLDSRISYIPLHIARDSSNLIAAVKNNLYRIFKLRLAITASNPDIVISFMSEANVTTLLATRGLNVPVLVSERNNPKIRLTKSSIWVKLRQLTYPFAQRVIVQTQRALNYFPSSLKNRICVIPNPVLLPPNKPCKPQELFNKLPGQKLLIAVGRLESQKGFDLLLQAFANLKDDFSEWQLVILGEGILHLDLTELCHQLQLNGRVYFLGRVKNIYEFLQEADIYVMSSRFEGFPNALCEAMASGLPVISTDCPNGPREIIRDGIDGLLVPNEDVLALTSAIKLLMSDEEKRKNLATNASEIAERFSIDKIMEMWEFVVKDVVES	not soluble
MGSDKIHHHHHHISYPLPPEGSRLVGSAFTIAVPDNNTQPLESFAAQYGQGLSNMLEANPGVDVYLPRSGSTLTIPQQLILPDTVREGIVINVAEMRLYYYPPLGNSVEVLPIGIGQAGRETPRNWVTAVERKQEGPTWVPTANTRREYAKEGKTLPAMVPPGPDNPMGLYAIYIGRLYAIHGTNANFGIGLRVSQGCIRLRNDDIKFLFDNVPVGTRVQLIDQPVKYSVEPDGSHWLEVHEPLSRNRAEFESDRKVPLPMTSALRDFTQGPGVSPAQVEQTLQRRSGMPVNISATAAQGSL	not soluble
MSLAATPRKLSSKEVAALVGNLMEASESTSLENGLEVRPYAFGENELNQLGDYHALRIINERFCRTARDVFLPMLRLQPRISSFPPEVRSFDDYRSSQDNFVSITASRIEELRGNQMIVIPPPFISLLTDSYYGGQIRHVPTTRTEFTATEERCIELVTDRLNVALQVAWRDLMALTFTVVSREESMQFASFVDGEDMVVNCSFMVQLPNTEPASFDILYPLQTLKPISSQLRSRMQSDFVDDDRSWREKLERAILSIPLTLSARLCEPEVPLRQLMQMQPGDVLPVHLTEALSLLVEGQPIFEAAPGERGGQAALNLTRRHVRGEGHHHHHH	soluble
MNASLYQQYVQAKAEHPGKYARDLATLMGISEAELTHSRVGHDAKRLQSDARALLAALESVGEVKAITRNTYAVHEQVGRYENQHLNGHAGLILNPRALDLRLFLNQWASAFTLTEETRHGVRHSIQFFDHQGDALHKVYVTEQTDMSAWEALLAQFIIPENPALQLEPLSTPEAVEPTADDATVDSEWRAMTDVHQFFQLLKRNNLTRQQAFRAVGDDLAYQVDNNSLTQLLHIAQQDQNEIMIFVGNRGCVQIFTGLIEKVTPHNEWINVFNQRFTLHLIETAIAESWITRKPTKDGFVTSLELFAADGTQLAQLYGQRTEGQPEQNQWREQIARLINKDIAA	not soluble
MKIADGVYVHFIPTQKYKTNRIVFRMTGSLNKQTIAKRALVSQMLATANQTYPTVQSFKERLASLYGTQLSTKVSTKGLTHSVDIELTYLKDFFIPMNTSLFWEVLGFLMDCLYNPLSIVAQYQNKVFDIEKQNLMTYLDVDTENNYYYSEVQGRELYFVNEALKVPKYGRVELVEAETSFTAYQEFQSMLTKDRIDIFMVGEFDDYQVLRGLHRFPLEGRQVDLQFSYNQSYSKVVKEKIETRQTSQSILQLGYQFPCQYGDKDYFALIVFNGMLGEFAHSALFTKIREKEGLAYSIGSQFDAFTGLLEIYAGIEKSNRNQAMRGIIRELNHIKLGRFSSSLFNQTKKIIRMNALLSEDHALTLVEQHFNKVIFGDKKISLEDWLDKIEKVTKKDVCRIARQVKLQSLFFLEGVS	not soluble
MGSDKIHHHHHHMGSAAQFRRWIRPSARLCNAPFIRATVQVHWRNLYLLSRRSAPRRFHADQEKDMTPRSIIAAGALFAAVATAPAAWASSTYMGALTEAEVLAAQKAWGEALVAISREHEAGGQAKAKALASTVLDKAYGYNLGPVLFKPTLTMAPQTFRTTKDGALAYFVGGDPNYPNDKGFALQGWRSVAIKNAAIQIHGDVATTTGNVMITDKNGNVTTVDKTWAFKKTDDGAIRIVVHHSSLPYTAK	not soluble
MLFYLISAIIFTTVAFAAPTPAPTLTVAEEMEAIFQNLTEEAQNDYFQILFDHTLTLAELDQKWDEWAEKHGIADKWAVYTSKWQARKEKFNETTVSVIERLPSTYKMLSEITANRNQTLSQVETALEELKEKFNLEVQLILILSKTLILNEEIVLGGGPIEVGNEVTGNSFRRMRDFKNKNRDVKSLLIPGPL	not soluble
MKKYILSLDQGTTSSRAILFNKKGEIVHSAQKEFTQHFPKPGWVEHNAQEIWGSILAVIATCLSEADVKPEQIAGIGITNQRETAVVWDKTTGKPIYNAIVWQSRQTAEICDELKEKGYSEMVREKTGLLIDAYFSGTKVKWILDNVEGAREKAENGDLLFGTIDTWLVWKLSGGKAHVTDYSNASRTLMFNIHDLQWDDELLDMLTVPKSMLPEVRPSSEVYGETIDYHFFGQNVPIAGVAGDQQAALFGQACFGEGMAKNTYGTGCFMLMNTGEKAVASEHGLLTTIAWGIDGKVNYALEGSIFVAGSAIQWLRDGMRMFKDASESEVYASRVESTDGVYVVPAFVGLGTPYWDSEVRGAMFGVTRGTTKEHFIRATLESLAYQIKDVLCAMEADSGIELKTLRVDGGAVKNNFLMKFQSDILDVPVERPVINETTALGAAYLAGLAVGYWKNQDEIKEQWHMDKRFEPTMEAETSEELYAGWKKAIEATKAFK	not soluble
MAHHHHHHMSPYEYLFKYIIIGDTGVGKSCLLLQFTDKRFRADHDLTIGVEFGARLINLDNKQIKLQIWDTAGQESFRSITRSYYRGAAGALLVYDITRRETFNHLNRWLDEVRQNSNPHMAIILVGNKCDLERREVSAEEGAQFARQNGLIFLETSAKTAKNVEEAFLYTARKIYDNILEDVYDLSNESYGIKYGPNSQYSRVKLDIPSMPESRSGFSCC	soluble
MALSEQSKDLSDPNFAAEAPNSEVHSSPGVSEGVPPSATLAEPQSPPLGPTAAPQAAPPPQAPNDEGDPKALQQAAEEGRAHQAPSAAQPGPAPPAPAQLVQKAHELMWYVLVKDQKKMIIWFPDMVKDVIGSYKKWCRSILRRTSLILARVFGLHLRLTSLHTMEFALVKALEPEELDRVALSNRMPMTGLLLMILSLIYVKGRGARESAVWNVLRILGLRPWKKHSTFGDVRKLITEEFVQMNYLKYQRVPYVEPPEYEFFWGSRASREITKMQIMEFLARVFKKDPQAWPSRYREALEEARALREANPTAHYPRSSVSEGHHHHHH	soluble
